Test [1] has as its target recombinant His-tagged FAK (focal adhesion kinase) (UniProt Q05397 1-1052). Nature of the test: pull-down.
For test [2], the target named is recombinant His-tagged Pyk2 (proline-rich tyrosine kinase 2) (UniProt Q14289 1-1009). Nature of the test: pull-down.

The values that follow come from publication PMC5748976 (The Journal of Cell Biology, 2018).

As usually defined, the Kd is the constant that tells how readily two partners part at equilibrium.

Chain of recombinant His-tagged FAK (focal adhesion kinase) (Q05397 whole entry): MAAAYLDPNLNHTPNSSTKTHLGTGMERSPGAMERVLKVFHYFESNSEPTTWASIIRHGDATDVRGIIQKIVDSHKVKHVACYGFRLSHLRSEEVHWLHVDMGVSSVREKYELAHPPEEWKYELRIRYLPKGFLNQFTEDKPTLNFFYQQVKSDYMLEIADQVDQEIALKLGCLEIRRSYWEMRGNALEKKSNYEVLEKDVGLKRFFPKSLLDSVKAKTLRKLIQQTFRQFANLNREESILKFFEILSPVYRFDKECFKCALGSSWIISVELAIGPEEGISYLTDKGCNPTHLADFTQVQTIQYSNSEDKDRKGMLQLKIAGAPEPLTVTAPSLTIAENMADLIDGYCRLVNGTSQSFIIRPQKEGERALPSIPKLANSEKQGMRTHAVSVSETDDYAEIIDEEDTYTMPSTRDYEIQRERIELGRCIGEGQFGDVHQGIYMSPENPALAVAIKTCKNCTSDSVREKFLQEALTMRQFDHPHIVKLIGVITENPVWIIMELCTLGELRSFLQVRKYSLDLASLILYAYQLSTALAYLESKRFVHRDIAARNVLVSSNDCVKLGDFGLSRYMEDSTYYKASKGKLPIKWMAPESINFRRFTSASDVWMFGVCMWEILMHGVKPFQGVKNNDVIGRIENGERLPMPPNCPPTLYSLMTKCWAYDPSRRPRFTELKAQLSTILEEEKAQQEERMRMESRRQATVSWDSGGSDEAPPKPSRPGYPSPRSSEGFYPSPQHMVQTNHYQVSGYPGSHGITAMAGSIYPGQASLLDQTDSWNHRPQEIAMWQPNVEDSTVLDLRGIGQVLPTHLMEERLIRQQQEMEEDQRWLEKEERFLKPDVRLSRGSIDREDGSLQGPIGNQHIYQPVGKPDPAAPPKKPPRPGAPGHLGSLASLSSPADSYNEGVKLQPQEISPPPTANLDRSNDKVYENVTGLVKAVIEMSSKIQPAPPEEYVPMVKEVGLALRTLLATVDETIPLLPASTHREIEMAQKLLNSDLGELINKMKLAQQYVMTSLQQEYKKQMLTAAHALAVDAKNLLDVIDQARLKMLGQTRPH
Chain of recombinant His-tagged Pyk2 (proline-rich tyrosine kinase 2) (Q14289 whole entry): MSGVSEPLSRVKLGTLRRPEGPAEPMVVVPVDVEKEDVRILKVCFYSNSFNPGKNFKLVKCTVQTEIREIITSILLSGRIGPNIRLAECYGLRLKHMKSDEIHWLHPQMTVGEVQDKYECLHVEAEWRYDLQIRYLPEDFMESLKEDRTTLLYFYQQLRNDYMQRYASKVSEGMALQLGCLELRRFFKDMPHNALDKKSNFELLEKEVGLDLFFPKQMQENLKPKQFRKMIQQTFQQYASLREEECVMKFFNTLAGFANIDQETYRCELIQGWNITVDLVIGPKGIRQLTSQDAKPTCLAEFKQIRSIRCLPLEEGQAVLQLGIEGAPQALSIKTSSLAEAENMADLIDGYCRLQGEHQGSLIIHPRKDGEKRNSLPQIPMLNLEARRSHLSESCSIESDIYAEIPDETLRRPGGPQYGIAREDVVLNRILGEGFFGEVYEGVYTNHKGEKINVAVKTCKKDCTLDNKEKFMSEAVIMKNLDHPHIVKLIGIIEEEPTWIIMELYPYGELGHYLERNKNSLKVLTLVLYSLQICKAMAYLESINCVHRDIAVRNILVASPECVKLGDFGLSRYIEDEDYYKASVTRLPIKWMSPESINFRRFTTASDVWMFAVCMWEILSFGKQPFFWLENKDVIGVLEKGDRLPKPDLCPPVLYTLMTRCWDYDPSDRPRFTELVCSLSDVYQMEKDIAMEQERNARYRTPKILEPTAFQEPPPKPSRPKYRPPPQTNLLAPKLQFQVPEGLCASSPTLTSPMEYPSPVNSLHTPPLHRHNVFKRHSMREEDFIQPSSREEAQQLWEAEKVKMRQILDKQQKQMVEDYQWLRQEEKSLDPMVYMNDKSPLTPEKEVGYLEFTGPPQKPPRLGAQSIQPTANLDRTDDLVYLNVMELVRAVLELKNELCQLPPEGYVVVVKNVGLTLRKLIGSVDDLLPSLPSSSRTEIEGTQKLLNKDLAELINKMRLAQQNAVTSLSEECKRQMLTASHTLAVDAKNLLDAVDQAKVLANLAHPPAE

B1: recombinant His-tagged cortactin (natural protein)
chain: not shown
For the molecule B1, the values for the Kd in test [1] and in test [2] were 2160 ± 683 nM and 490 ± 138 nM, respectively.
